# Read-outs that look alike come from different tables or passages of the source.
# How the values were obtained:
# NCI-H441 NSCLC = test: In vivo activity of 224G11 and PF-02341066 as single treatments, NCI-H441 s.c. xenograft; settings: NCI-H441 s.c. in Athymic nude mice; for tumors growth of treated mice (FIG. 1): 224G11 i.p. 2 mg loading dose then 1 mg twice a week, PF-02341066 50 mg/kg p.o.; for antitumoral activity, single treatments compared with each other: same regimens
# Method: In order to verify that the NCI-H441 in vivo model available in the laboratory is sensible to both the 224G11 antibody and the PF-2341066 compound, immunocompromised mice engrafted subcutaneously with NCI-H441 were used. Briefly, NCI-H441 NSCLC cells from ATCC were cultured in RPMI 1640 medium, 10% FCS, 1% L-Glutamine. Cells were split two days before engraftment so that they were in exponential phase of growth. Ten million NCI-H441 cells were injected s.c. to Athymic nude mice. […] For the antibody treatment, mice were treated i.p. with a loading dose of 2 mg of 224G11 Mab/mouse and then twice a week with 1 mg of antibody/mouse. 50 mg/kg of PF-02341066 was administered p.o. (oral gavage), daily for a week and then 5 days a week with a double dose the fifth day. Treatment lasted during the whole experiment. Tumor volume was measured twice a week and calculated by the formula: π/6×length×width×height.
# NCI-H441 cells = test: In vivo activity of a combination of 224G11 and PF-02341066, NCI-H441 xenograft; parameters: species or system Athymic nude mice; settings: day 53 post first injection; 224G11 i.p. 2 mg then 1 mg twice a week; PF-2341066 50 mg/kg p.o.
# Method: NCI-H441 cells from ATCC were routinely cultured in RPMI 1640 medium, 10% FCS, 1% L-Glutamine. Cells were split two days before engraftment so that they were in exponential phase of growth. Ten million NCI-H441 cells were engrafted to Athymic nude mice. […] For the antibody treatment, mice were treated i.p. with a loading dose of 2 mg of 224G11 Mab/mouse and then twice a week with 1 mg of antibody/mouse. 50 mg/kg of PF-2341066 was administered p.o. (oral gavage), daily for a week and then 5 days a week with a double dose the fifth day. The group of mice receiving both 224G11 and PF-2341066 was treated following the same modalities as the one described above for each compound. Tumor volume was measured twice a week and calculated by the formula: […]×length×width×height and animal weights were monitored every day over the period of treatment.
# Statistical analysis was performed at each measured time using a Mann-Whitney test. In this experiment, mice of the control group were sacrificed on day 53 for ethical reasons. At day 53 post first injection, the average tumor volume of single modality treated groups is reduced by 64%, 73% and 93% for 224G11, PF-2341066 and 224G11+PF-2341066 respectively. […] No significant differences were observed between the 2 single modality treatment.
# c-Met mutations = settings: cited from earlier work
# c-Met = c-Met (Homo sapiens, UniProt P08581); test: Inhibition of c-Met dimerization by the antibodies
# Chain of c-Met (P08581 25-1390): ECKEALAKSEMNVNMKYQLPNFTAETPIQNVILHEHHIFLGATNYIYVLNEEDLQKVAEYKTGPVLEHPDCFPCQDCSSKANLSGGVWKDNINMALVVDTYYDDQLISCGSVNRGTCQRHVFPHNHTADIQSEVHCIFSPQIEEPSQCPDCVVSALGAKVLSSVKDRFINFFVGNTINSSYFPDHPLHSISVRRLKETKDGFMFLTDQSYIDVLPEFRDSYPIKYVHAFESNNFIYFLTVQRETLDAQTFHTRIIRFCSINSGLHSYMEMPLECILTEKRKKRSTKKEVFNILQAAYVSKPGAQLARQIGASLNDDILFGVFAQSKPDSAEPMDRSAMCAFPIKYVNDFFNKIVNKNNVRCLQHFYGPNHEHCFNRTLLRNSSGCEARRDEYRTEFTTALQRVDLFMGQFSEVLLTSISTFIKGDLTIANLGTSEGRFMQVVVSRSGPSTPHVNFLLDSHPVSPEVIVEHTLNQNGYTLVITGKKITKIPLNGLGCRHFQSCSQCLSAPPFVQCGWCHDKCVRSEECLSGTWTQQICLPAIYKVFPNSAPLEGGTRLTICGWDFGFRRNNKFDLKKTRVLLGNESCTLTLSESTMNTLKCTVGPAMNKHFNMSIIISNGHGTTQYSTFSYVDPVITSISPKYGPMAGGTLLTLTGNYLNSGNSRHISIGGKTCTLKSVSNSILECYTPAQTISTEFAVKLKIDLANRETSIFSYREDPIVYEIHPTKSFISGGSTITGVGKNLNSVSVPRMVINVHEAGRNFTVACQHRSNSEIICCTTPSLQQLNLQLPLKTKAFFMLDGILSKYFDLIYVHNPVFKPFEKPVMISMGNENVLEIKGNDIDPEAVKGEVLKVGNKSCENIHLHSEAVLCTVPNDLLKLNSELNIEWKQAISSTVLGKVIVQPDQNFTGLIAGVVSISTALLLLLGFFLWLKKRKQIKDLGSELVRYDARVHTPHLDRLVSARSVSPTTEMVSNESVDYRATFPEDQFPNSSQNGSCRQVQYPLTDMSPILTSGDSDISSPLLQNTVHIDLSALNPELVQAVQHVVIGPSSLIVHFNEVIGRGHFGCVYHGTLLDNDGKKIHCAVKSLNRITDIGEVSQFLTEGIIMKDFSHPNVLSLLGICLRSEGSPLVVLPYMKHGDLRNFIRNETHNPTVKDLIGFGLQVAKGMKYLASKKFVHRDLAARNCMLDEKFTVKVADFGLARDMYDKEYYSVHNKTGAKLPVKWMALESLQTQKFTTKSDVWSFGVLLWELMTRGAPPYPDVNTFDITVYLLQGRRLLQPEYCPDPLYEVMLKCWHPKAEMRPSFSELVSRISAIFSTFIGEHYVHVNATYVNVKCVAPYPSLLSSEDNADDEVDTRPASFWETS
# [1] = In vivo activity of the anti-c-Met antibodies
Molecule,tumors growth of treated mice (FIG. 1) (NCI-H441 NSCLC),"antitumoral activity, single treatments compared with each other (NCI-H441 NSCLC)",average tumor volume reduced by (NCI-H441 cells) [%],c-Met dimerization (c-Met),activity in vivo [1],further results
"C[C@@H](Oc1cc(-c2cnn(C3CCNCC3)c2)cnc1N)c1c(Cl)ccc(F)c1Cl [PF-02341066, 3-[(R)-1-(2,6-Dichloro-3-fluoro-phenyl)-ethoxy]-5-(1-piperidin-4-yl-1H-pyrazol-4-yl)-pyridin-2-ylamine, reference compound]",significant difference in tumors growth,comparable antitumoral activities,73,–,–,–
Cc1[nH]c(/C=C2\C(=O)Nc3ccc(S(=O)(=O)N(C)c4cccc(Cl)c4)cc32)c(C)c1C(=O)N1CCN(C)CC1 [SU11274],–,–,–,–,–,"sensitivity of c-Met mutation to the agent (c-Met mutations; H1112Y mutation, decreased cell growth and motility): sensitive; sensitivity of c-Met mutation to the agent (c-Met mutations; L1213V mutation): resistant; sensitivity of c-Met mutation to the agent (c-Met mutations; M1268T mutation, decreased cell growth and motility): sensitive; sensitivity of c-Met mutation to the agent (c-Met mutations; Y1248 mutation): resistant"
"224G11: monoclonal antibody antagonist to c-Met secreted by murine hybridoma CNCM I-3731; heavy chain SEQ ID No. 18, light chain SEQ ID No. 21 (antibody, V domains shown, mus musculus) VH: EVQLQQSGPELVKPGASVKISCKTSGYIFTAYTMHWVRQSLGESLDWIGGIKPNNGLANYNQKFKGKATLTVDKSSSTAYMDLRSLTSEDSAVYYCARSEITTEFDYWGQGTALTVSS VL: DIVLTQSPASLAVSLGQRATISCRASESVDSYANSFMHWYQQKPGQPPKLLIYRASNLESGIPARFSGSGSRTDFTLTINPVEADDVATYYCQQSKEDPLTFGSGTKLEMK",significant difference in tumors growth,comparable antitumoral activities,64,inhibit the c-Met dimerization,active in vivo,–
"227H1: monoclonal antibody antagonist to c-Met, hybridoma CNCM I-3732; heavy chain SEQ ID No. 19, light chain SEQ ID No. 22 (antibody, V domains shown, mus musculus) VH: EVQLQQSGPELVKPGASMKISCKASGYSFTDYTLNWVKQSHGKTLEWIGLINPYNGGTTYNQKFKGKATLTVDKSSSTAYMELLSLTSEDSAVYYCAREEITKDFDFWGQGTTLTVSS VL: GIVLTQSPASLAVSLGQRATISCRVSESIDTYGNSFIHWYQQKPGQPPKLLIYRASNLESGIPARFSGSGSRTDFTLTINPVEADDSATYYCQQSNEDPFTFGSGTKLEMK",–,–,–,inhibit the c-Met dimerization,active in vivo,–
"223C4: monoclonal antibody antagonist to c-Met, hybridoma CNCM I-3786; heavy chain SEQ ID No. 20, light chain SEQ ID No. 23 (antibody, V domains shown, mus musculus) VH: EVLLQQSGPELVKPGASVKIPCKASGYTFTDYNMDWVKQSHGMSLEWIGDINPNNGGTIFNQKFKGKATLTVDKSSSTAYMELRSLTSEDTAVYYCARGRYVGYYYAMDYWGQGTSVTVSS VL: DIQMTQSPASLSVSVGETVTITCRASENIYSNLAWYQQKQGKSPQLLVYAATNLVDGVPSRFSGSGSGTQYSLKINSLQSEDFGSYYCQHFWGPPYTFGGGTKLEIK",–,–,–,inhibit the c-Met dimerization,active in vivo,–
"11E1: monoclonal antibody antagonist to c-Met, hybridoma CNCM I-3724; heavy chain SEQ ID No. 53, light chain SEQ ID No. 54 (antibody, V domains shown, mus musculus) VH: QVQLQQSGAELAKPGASVKMSCKASGYTFTSYWMNWVKQRPGQGLEWIGYINPTTGSTDYNQKLKDKATLTADKSSNTAYMQLSSLTSEDSAVYYCAIGGYGSWFAYWGQGTLVTVSA VL: QIVLTQSPAIMSASPGEKVTLTCSASSSVSSTYLYWYQQKPGSSPKLWIYTTSILASGVPARFSGSGSGTSYSLTISSMETEDAASYFCHQWSSYPFTFGSGTKLDIK",–,–,–,inhibit the c-Met dimerization,active in vivo,–

# Reference: patent US9375425B2, “Combination of a C-Met antagonist and an aminoheteroaryl compound for the treatment of cancer” (Pierre Fabre Medicament, priority 2008, dated 2016)
